Values of other authors, collected in publication PMC7596073.
Values joined by “and” are separate entries in the source; they are usually repeats but may differ in a detail not shown here. Equal entries are not always repeated.

Target: IL-18BP (Homo sapiens) (UniProt O95998)
Sequence (O95998 31-194): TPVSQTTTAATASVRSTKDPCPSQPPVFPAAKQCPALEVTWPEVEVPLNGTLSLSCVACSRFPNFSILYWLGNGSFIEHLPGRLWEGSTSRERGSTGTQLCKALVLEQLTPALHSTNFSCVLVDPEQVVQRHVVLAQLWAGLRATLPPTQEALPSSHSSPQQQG

Chain of IL-18 (Q14116 37-193): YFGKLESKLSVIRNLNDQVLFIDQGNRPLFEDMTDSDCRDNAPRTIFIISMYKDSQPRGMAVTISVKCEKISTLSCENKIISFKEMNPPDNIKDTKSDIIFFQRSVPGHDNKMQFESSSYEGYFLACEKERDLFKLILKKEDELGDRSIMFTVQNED

For IL-18 (from UniProt Q14116), the Kd is listed as 0.04 nM and 0.4 nM.
